The subject of assay [1] is HUVEC. As to the kind of experiment: HUVEC cellular migration assay. In kind it is cell-based, human. As to the method: Robo4-Fc and Robo4-His were contacted with vascular ECs using a HUVEC migration assay and in the presence or absence of VEGF.
Endothelial cell migration was not blocked by anti-Robo4 antibody in an in vitro assay using human umbilical vascular endothelial cells (HUVEC) cellular migration assay. HUVECs endogenously express human Robo4. The assay was performed as follows. HUVECs were pre-incubated for 2 hours with VEGF.

In assay [2] the target is T1, UNC5B (Homo sapiens, UniProt Q8IZJ1).
T1 construct: extracellular domain of UNC5B fused to an Fc region; Fc region
As to the kind of experiment: SPR binding to immobilized UNC5B-Fc. As to the method: It has been shown that netrin binding to members of the uncoordinated-5 (UNC5) family of receptors (UNC5A, B, C, and D) results in neural axon […] (Klagsbrun, M. and Eichmann, A., Cytokine & Growth Factor Reviews 16(4-5):535-548 (2005)). Netrin-UNC5B interaction has been implicated in angiogenesis (Klagsbrun, M. and Eichmann, A., supra (2005) and Lu, X. et al., Nature 432:179-186 (2004)). The interaction of Robo4 with UNC5B in vitro was determined by SPR binding measurements in which UNC5B-Fc fusion protein (extracellular domain of UNC5B fused to an Fc region) was immobilized on a chip and soluble Robo4-Fc or Robo4-His was allowed to interact with it at different concentrations.
In general terms: Surface plasmon resonance follows binding to a sensor surface in real time, without labels.

T1 sequence (Q8IZJ1 27-377 limits assumed, species assumed): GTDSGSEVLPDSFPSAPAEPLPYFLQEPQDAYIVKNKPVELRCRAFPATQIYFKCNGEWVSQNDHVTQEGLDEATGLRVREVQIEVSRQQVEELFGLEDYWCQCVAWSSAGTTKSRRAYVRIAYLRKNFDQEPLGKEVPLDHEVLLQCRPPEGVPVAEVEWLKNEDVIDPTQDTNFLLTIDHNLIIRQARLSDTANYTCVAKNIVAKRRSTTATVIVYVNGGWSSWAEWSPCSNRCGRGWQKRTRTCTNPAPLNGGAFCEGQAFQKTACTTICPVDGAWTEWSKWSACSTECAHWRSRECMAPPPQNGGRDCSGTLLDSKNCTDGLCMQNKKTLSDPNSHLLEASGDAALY

B1: Robo4-His: soluble Robo4 extracellular domain fused to a C-terminal Histidine tag (protein)
chain: QDSPPQILVHPQDQLFQGPGPARMSCQASGQPPPTIRWLLNGQPLSMVPPDPHHLLPDGTLLLLQPPARGHAHDGQALSTDLGVYTCEASNRLGTAVSRGARLSVAVLREDFQIQPRDMVAVVGEQFTLECGPPWGHPEPTVSWWKDGKPLALQPGRHTVSGGSLLMARAEKSDEGTYMCVATNSAGHRESRAARVSIQEPQDYRAHHHHHHHH
Turning to B1, in assay [1] (HUVECs pre-incubated with VEGF, 16 hours), the “blocking of endothelial cell migration” value was “Neither anti-Robo4 nor the soluble Robo4 extracellular domain fusion proteins (Robo4-Fc and Robo4-His) blocked EC migration”. The “induction of EC migration” value in assay [1] (alone, absence of VEGF) was “did not induce EC migration”. Also, in assay [2], the “interaction with UNC5B” value is listed as “interacts in vitro with UNC5B”.

Source of the values: patent US20110059013A1, “ANTI-ROBO4 ANTIBODIES AND USES THEREFOR” (Genentech, Inc., priority 2007, published 2011).
